Laboratory results reported in patent EP4818210A1.

Assays:
[1] = target: Her2/ERBB2 Protein, Human, Recombinant (ECD, His Tag) (human) (UniProt P04626); experiment: ELISA, control on human HER2 antigen
[2] = target: Her2/ERBB2 Protein, Human, Recombinant (ECD, His Tag) (human) (UniProt P04626); experiment: ELISA, E. coli lysate supernatant on human HER2 antigen

OD450 [1] [OD450]	OD450 [2] [OD450]	Molecule
0.073	–	Irrelevant
–	0.804	M26H2-2002 (VHH) VHH: QVQLVESGGGLVQPGGSLRLSCAASGFIFGNYPMNWYRQAPGKEREFVAVITRDGGVTRYAASVKGRFTITRDNAKNTVFLQMNSLKLEDTAVYYCHNPNYNAWGQGTQVTVAS
–	1.03	M26H2-3134 (VHH) VHH: QVQLVESGGGMVQPGGSLRLSCAASGITFRHYTMSWYRQAPGKERELVASITYGGVTTNYADSVKGRFTLSRDDAKTTAYLQMTGLKPEDTAVYYCHADWTAAGLNHWGQGTQVTVSS
